These results are taken from PMC4691241, “Activation of ULK Kinase and Autophagy by GABARAP Trafficking from the Centrosome Is Regulated by WAC and GM130” (Molecular Cell, 2015).

Experiment [1] deals with T1, Strep-Tag II-GM130, purified (human, UniProt Q08379 1-1002).
T1 construct: human GM130 isoform 1; also called Strep II-GM130; purified GM130; source: purified
T1 sequence (looked up): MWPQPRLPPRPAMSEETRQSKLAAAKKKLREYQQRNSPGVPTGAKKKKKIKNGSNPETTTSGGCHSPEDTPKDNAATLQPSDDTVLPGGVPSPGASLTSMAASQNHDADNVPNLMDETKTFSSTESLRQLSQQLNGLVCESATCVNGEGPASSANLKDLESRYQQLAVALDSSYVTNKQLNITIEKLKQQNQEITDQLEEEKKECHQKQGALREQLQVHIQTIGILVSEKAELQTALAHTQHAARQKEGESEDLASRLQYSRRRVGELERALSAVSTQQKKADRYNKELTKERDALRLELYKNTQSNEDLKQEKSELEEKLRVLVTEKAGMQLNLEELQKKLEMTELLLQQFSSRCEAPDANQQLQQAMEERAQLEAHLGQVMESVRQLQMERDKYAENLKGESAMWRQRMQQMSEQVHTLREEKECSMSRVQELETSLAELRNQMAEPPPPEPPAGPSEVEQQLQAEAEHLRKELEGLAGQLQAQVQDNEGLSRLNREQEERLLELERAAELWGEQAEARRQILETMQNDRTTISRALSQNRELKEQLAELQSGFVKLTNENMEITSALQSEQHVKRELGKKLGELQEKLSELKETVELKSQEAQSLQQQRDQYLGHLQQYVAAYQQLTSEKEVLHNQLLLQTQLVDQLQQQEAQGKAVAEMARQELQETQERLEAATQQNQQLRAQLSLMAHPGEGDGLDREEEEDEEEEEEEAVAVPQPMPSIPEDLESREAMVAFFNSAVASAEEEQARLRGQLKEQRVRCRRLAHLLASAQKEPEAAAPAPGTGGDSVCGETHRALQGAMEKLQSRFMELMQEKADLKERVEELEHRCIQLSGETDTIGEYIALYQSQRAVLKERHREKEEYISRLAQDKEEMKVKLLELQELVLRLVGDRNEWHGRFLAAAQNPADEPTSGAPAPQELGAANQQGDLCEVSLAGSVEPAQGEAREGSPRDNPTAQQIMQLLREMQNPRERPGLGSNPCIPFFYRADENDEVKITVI
Nature of the experiment: pull-down; purified Strep II-GM130 incubated with recombinant WAC 320–647 before binding to recombinant GST or GST-GABARAP beads, immunoblot. The settings on record: both partners purified. (A western blot detects proteins with antibodies after separation by electrophoresis.)

Experiment [2] addresses T1, Strep-Tag II-GM130, purified. The experiment in a line: pull-down; GST-WAC FL or ΔCC incubated with purified Strep-Tag II-GM130; GST-WAC monitored by Ponceau S. The settings on record: both partners purified.

B1: recombinant WAC 320–647 (domain or fragment, human, UniProt Q9BTA9 320-647, looked up)
chain: TTPSTSSASGLNPTSAPPTSASAVPVSPVPQSPIPPLLQDPNLLRQLLPALQATLQLNNSNVDISKINEVLTAAVTQASLQSIIHKFLTAGPSAFNITSLISQAAQLSTQAQPSNQSPMSLTSDASSPRSYVSPRISTPQTNTVPIKPLISTPPVSSQPKVSTPVVKQGPVSQSATQQPVTADKQQGHEPVSPRSLQRSSSQRSPSPGPNHTSNSSNASNATVVPQNSSARSTCSLTPALAAHFSENLIKHVQGWPADHAEKQASRLREEAHNMGTIHMSEICTELKNLRSLVRVCEIQATLREQRILFLRQQIKELEKLKNQNSFMV
notes: human WAC isoform 1, residues 320-647 (the C-terminal half, CT); source: recombinant
B1: the binding result in experiment [1] is reported as “binds”.

B2: GST-WAC FL (natural protein, human, UniProt Q9BTA9 1-647, looked up)
chain: MVMYARKQQRLSDGCHDRRGDSQPYQALKYSSKSHPSSGDHRHEKMRDAGDPSPPNKMLRRSDSPENKYSDSTGHSKAKNVHTHRVRERDGGTSYSPQENSHNHSALHSSNSHSSNPSNNPSKTSDAPYDSADDWSEHISSSGKKYYYNCRTEVSQWEKPKEWLEREQRQKEANKMAVNSFPKDRDYRREVMQATATSGFASGMEDKHSSDASSLLPQNILSQTSRHNDRDYRLPRAETHSSSTPVQHPIKPVVHPTATPSTVPSSPFTLQSDHQPKKSFDANGASTLSKLPTPTSSVPAQKTERKESTSGDKPVSHSCTTPSTSSASGLNPTSAPPTSASAVPVSPVPQSPIPPLLQDPNLLRQLLPALQATLQLNNSNVDISKINEVLTAAVTQASLQSIIHKFLTAGPSAFNITSLISQAAQLSTQAQPSNQSPMSLTSDASSPRSYVSPRISTPQTNTVPIKPLISTPPVSSQPKVSTPVVKQGPVSQSATQQPVTADKQQGHEPVSPRSLQRSSSQRSPSPGPNHTSNSSNASNATVVPQNSSARSTCSLTPALAAHFSENLIKHVQGWPADHAEKQASRLREEAHNMGTIHMSEICTELKNLRSLVRVCEIQATLREQRILFLRQQIKELEKLKNQNSFMV
notes: human WAC isoform 1, full length; also called recombinant GST-WAC; source: recombinant
For B2, the binding result in experiment [2] was “binds”.
